{
  "source": "paper PMC4927282",
  "molecular_target": "caveolin-1 (Cav1) (UniProt Q03135)",
  "sequence (Q03135 whole entry, stated change not applied)": "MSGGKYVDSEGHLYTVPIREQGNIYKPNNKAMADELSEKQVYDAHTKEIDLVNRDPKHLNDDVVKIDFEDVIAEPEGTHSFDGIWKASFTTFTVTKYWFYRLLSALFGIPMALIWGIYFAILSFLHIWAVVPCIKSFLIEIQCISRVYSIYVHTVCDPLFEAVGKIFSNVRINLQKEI",
  "assay": "acceptor-photobleaching FRET, CFP/YFP pairs",
  "settings": "reference: Y14F-CFP/Y14F-YFP pair; sites Y14",
  "data": [
    {"substance": "caveolin-1 (Cav1) (from UniProt Q03135) Y14D-CFP/Y14D-YFP pair", "values": [
      {"measurement": "other: FRET efficiency", "value": "weaker; reference 0.90 ± 0.13"}
    ]}
  ]
}
